Laboratory results from patent US20230330254A1 (Regeneron Pharmaceuticals, Inc., priority 2022, published 2023).

How the values were obtained:
[1] = biological target: T1, hGLP1R-MMH (N-terminal region of human GLP1R) (Homo sapiens, UniProt P43220); experiment: Biacore binding kinetics (surface plasmon resonance); conditions: 25° C.; for Ka: association rate
T1 construct: the N-terminal ectodomain of human GLP1R expressed with a myc-myc hexahistidine tag
Description: The equilibrium dissociation constant (KD) for GLP1R binding to different unconjugated GLP1R monoclonal antibodies (mAbs) or to GLP1R antibody tethered drug conjugates (ATDCs) was determined using a real-time surface plasmon resonance biosensor using a Biacore 3000, Biacore S200, Biacore 4000, Biacore T-200, or a Sierra Sensor MASS-2 instrument. All binding studies were performed in 10 mM HEPES, 150 mM NaCl, 3 mM EDTA, and 0.05% v/v Surfactant Tween-20, pH 7.4 (HBS-ET) running buffer at 25° C. The Biacore CM5 sensor chip surface was first derivatized by amine coupling with human Fc specific mouse mAb (REGN2567) to capture different GLP1R mAbs or ATDCs. Different concentrations (100, 90, 33.3, 30, 11.1, 10, 3.7, 3.3 and 1.1 nM) of the N-terminal region of human GLP1R expressed with a myc-myc-hexahistidine tag (“hexahistidine tag” disclosed as SEQ ID NO: 441) (hGLP1R-MMH) prepared in HBS-ET running buffer were injected over the GLP1R mAb captured surface for 240 or 300 sec at a flow rate of 50 μL/min and their dissociation in HBS-ET running buffer was monitored for 10 minutes. At the end of each cycle, the GLP1R mAb or ATDC capture surface was regenerated using a 10 sec injection of 20 mM phosphoric acid.
The association rate (ka) and dissociation rate (kd) were determined by fitting the real-time binding sensorgrams to a 1:1 binding model with mass transport limitation using Scrubber 2.0c curve-fitting software. Binding dissociation equilibrium constant (KD) and dissociative half-life (t %2) were calculated from the kinetic rates as: […]

HEK293/CRE-Luc cells = experiment: Flow cytometry cell binding, HEK293/CRE-Luc control cells (Example 18); parameters: species or system human; conditions: Table 30, control cells lacking GLP1R; for EC50: no unit printed in table (text reads values as M); for HEK293/CRE-Luc Flow S/N: signal to noise
Description: GLP1R agonist linker payloads were conjugated to anti-GLP1R antibodies via N-terminal heavy or light chain Glutamine (Q) tags. Several resulting anti-GLP1R-GLP1R agonist antibody tethered drug conjugates (ATDCs) and their unconjugated parental antibodies were tested for cell-based binding activity. The cell surface binding of the anti-GLP1R ATDCs to human GLP1R (HEK293/CRE-Luc/hGLP1R), cynomolgus GLP1R (HEK293/CRE-Luc/mfGLP1R), and control cells lacking expression of GLP1R (HEK293/CRE-Luc) was assessed via flow cytometry. For the assay, 61,000-230,000 cells were suspended in PBS, w/2% FBS and 0.2% sodium azide (staining buffer) in 96 well V-bottom plates and incubated for 30 minutes at 4° C. with three-fold serial dilutions of the anti-GLP1R ATDCs, non-binding control ATDCs, or unconjugated anti-GLP1R antibodies. The last well in each row of the plate served as a blank control containing only secondary antibody and was plotted as a continuation of the 3-fold serial dilution. […] Cells were then washed once and stained with a cell viability dye (Live/dead Fixable Green Dead Cell Stain Kit for 488 nm excitation, Molecular Probes cat #L34970) at 1× in PBS for 20 minutes at 4° C. Cells were washed once in staining buffer, fixed for 20 minutes at 4° C. using a 50% solution of Cytofix (BD Biosciences, Cat #554655) diluted in PBS, and washed again in staining buffer. Samples were filtered through Pall 96 well plate PP/PE mesh filter system and collected in Costar 96 well plate. Samples were run on the iQue flow cytometer (Intellicyte) and results were analyzed using Forecyte analysis software (Intellicyte) to calculate the mean fluorescent intensity (MFI) after gating for live cells. EC50 values were determined using a four-parameter logistic equation over a 10-point dose response curve (GraphPad Prism). The signal to noise (S/N) was determined by taking the ratio of the highest MFI on the dose response curve to the MFI in the secondary alone wells.

human GLP1R = biological target: T2, human GLP1R (Homo sapiens, UniProt P43220); experiment: Flow cytometry cell binding, HEK293/CRE-Luc/hGLP1R (Example 18); conditions: Table 30, no unit printed in table (text b1840 reads values as M), experiments A, C, D
T2 construct: engineered to express full-length human GLP1R, cynomolgus GLP1R; expressed in transfected cells; host or cells: HEK293/CRE-Luc
Description: GLP1R agonist linker payloads were conjugated to anti-GLP1R antibodies via N-terminal heavy or light chain Glutamine (Q) tags. […] The cell surface binding of the anti-GLP1R ATDCs to human GLP1R (HEK293/CRE-Luc/hGLP1R), cynomolgus GLP1R (HEK293/CRE-Luc/mfGLP1R), and control cells lacking expression of GLP1R (HEK293/CRE-Luc) was assessed via flow cytometry. […] The last well in each row of the plate served as a blank control containing only secondary antibody and was plotted as a continuation of the 3-fold serial dilution. […] Samples were filtered through Pall 96 well plate PP/PE mesh filter system and collected in Costar 96 well plate. Samples were run on the iQue flow cytometer (Intellicyte) and results were analyzed using Forecyte analysis software (Intellicyte) to calculate the mean fluorescent intensity (MFI) after gating for live cells. EC50 values were determined using a four-parameter logistic equation over a 10-point dose response curve (GraphPad Prism). The signal to noise (S/N) was determined by taking the ratio of the highest MFI on the dose response curve to the MFI in the secondary alone wells.

T1 sequence (P43220 24-139 limits assumed): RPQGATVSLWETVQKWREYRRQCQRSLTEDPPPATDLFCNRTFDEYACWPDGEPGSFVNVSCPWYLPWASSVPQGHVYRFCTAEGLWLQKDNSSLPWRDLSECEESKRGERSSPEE
T2 sequence (P43220 24-463): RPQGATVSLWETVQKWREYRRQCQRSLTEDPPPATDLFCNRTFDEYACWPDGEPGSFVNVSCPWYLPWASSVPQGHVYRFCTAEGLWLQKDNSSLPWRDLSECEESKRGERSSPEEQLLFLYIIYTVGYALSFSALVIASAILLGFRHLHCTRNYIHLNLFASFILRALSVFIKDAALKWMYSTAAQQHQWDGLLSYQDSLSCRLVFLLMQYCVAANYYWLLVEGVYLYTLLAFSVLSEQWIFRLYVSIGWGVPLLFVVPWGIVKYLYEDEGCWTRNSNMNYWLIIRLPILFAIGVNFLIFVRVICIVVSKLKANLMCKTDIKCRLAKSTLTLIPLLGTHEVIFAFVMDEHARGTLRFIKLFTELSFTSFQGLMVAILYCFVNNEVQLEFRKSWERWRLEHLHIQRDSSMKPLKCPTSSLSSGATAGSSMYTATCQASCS

Molecule	Ka ([1]; hGLP1R-MMH) [M⁻¹ s⁻¹]	dissociation rate constant (kd) ([1]; hGLP1R-MMH) [s⁻¹]	EC50 (HEK293/CRE-Luc cells) [nM]	HEK293/CRE-Luc Flow S/N (HEK293/CRE-Luc cells)	90 nM hGLP1R.mmh Bound ([1]; antibody captured on anti-human Fc surface, 90 nM hGLP1R-MMH) [RU]	Kd ([1]; hGLP1R-MMH, calculated from the kinetic rates) [nM]	EC50 (human GLP1R) [nM]
REGN8051 (antibody, V domains shown) VH: QVQLVESGGGVGQPGRSLRLSCAASGFTFSRNAMHWVRQAPGKGLEWVAVISYDGSNKHYADSVKGRFTISRDNSKNTLYLEMNSLRVEDTAVYYCAKGGIPFDYWGQGTLVTVSS VL: DIVMTQSPLSSPVTLGQPASISCRSSQSLVHFDGNTYLSWLHQRPGQPPRLLIYKISNRFSGVPDRFSGSGAGTDFTLKISRVEPEDVGVYYCMHATQFPYTFGQGTKLEIK	61900	0.000211	> 100	18.0	–	–	–
H4H30439P (antibody, V domains shown) VH: QVQLVESGGGVVQPGRSLRLSCAASGFTFSGYGIHWVRQAPGKGLVWVAVIWYDGSFKYYADSVKGRFTISRDNSKNTLYLQMNSLRAEDTAVYYCARGDSSSSGRYYYYGMDVWGQGTTVTVSS VL: DIQMTQSPSSLSASVGDRVTITCRASQGIRNDLGWYQQKPGTAPKRLIFAASSLQSGVPSRFSGSGSGTEFTLTISSLQPEDFATYYCLQHNNYPPTFGGGTKVEIK	277000	0.000189	–	–	152.4	0.681	0.769
H2aM30341N (antibody, V domains shown) VH: QVQLQQWGAGLLKPSETLSLTCAVYGGSFSGYYWSWIRQPPGKGLEWIGEINHAGSTNYNPSLKSRITISVDTSKNQFSLKLSSVTAADTAVYYCARGWYYGSGSYHRNWFDPWGQGTLVTVSS VL: EIVLTQSPGTLSLSPGERATLSCRASQSVYYSYLAWYQQKPGQAPRLLIYGASNRATGIPDRFSGSGSGTDFTLTISRLEPEDFAVYYCQQYGNSPWTFGQGTKVEIK	224000	7.74e-05	> 100	11.8	–	–	–
